Measured values published in publication PMC6318328, “Structural insights into trans-histone regulation of H3K4 methylation by unique histone H4 binding of MLL3/4” (Nature Communications, 2019).

How the values were obtained:
[1] = tested on: recombinant nucleosomes (histone H3K4); assay: In vitro histone methyltransferase (HMT) assay of MLL3/MLL4 constructs; assay type: biochemical; conditions: recombinant nucleosomes 0.5 μg, 2.5 μCi [3H]-SAM, 30 °C, 16 h, autoradiography (Fig. 3b, c)
Experimental: Mammalian expression plasmids encoding different fusions of MLL3 PHD and SET domains were subcloned into the pFLAG-CMV2 vector (Sigma-Aldrich, E7033) and were transiently expressed in HEK 293T cells (ATCC® ACS-4500™) by using Lipofectamine 2000 (ThermoFisher Scientific, 11668027) according to manufacturer’s protocol. Two days after transfection, cells were harvested and then lysed by mammalian lysis buffer (20 mM Tris-HCl, 137 mM NaCl, 1.5 mM MgCl2, 1 mM EDTA, 10% glycerol, 1% Triton X-100, 0.2 mM PMSF, 1 μg mL^−1 aprotinin, 2.5 μg mL^−1 leupeptin, and 1 μg mL^−1 pepstatin at pH 8.0). FLAG immunoprecipitation (FLAG IP) was performed in a similar way as described previously. In brief, total cell lysates were incubated with anti-FLAG M2 Affinity Gel (Sigma-Aldrich, A2220) in 4 °C for 5 h and were extensively washed with BC500 (20 mM Tris-HCl, 500 mM KCl, 1.5 mM MgCl2, 0.2 mM EDTA, 10% glycerol, 0.2 mM PMSF at pH 8.0). […]
HMT assay was performed according to a previously described method with minor modifications. […] The signals for HMT activity were detected by autoradiography. The input of the MLL3/4 proteins and nucleosomes were detected by mouse monoclonal anti-FLAG M2 (Sigma-Aldrich, F3165, 1:1000) and rabbit polyclonal anti-H3 antibody (Abcam, ab1791, 1:1000), respectively. […]

MLL3_(ePHD6)1055–1144 = molecular target: T1, MLL3_(ePHD6)1055–1144 (Homo sapiens, UniProt Q8NEZ4); assay: ITC binding of histone peptides to MLL3 ePHD6 (1055–1144); set-up: key to ITC titration, Kd / Kd: NB: no detectable binding; conditions: for Kd / binding to ePHD6 of MLL3 (in words): ITC; for Kd: 20 mM Tris pH 7.5, 150 mM NaCl, 25 °C, protein 50–100 μM in cell, peptide 1–2 mM in syringe, single measurement, error from fitting curve; for ITC titration, Kd: Supplementary Fig. 4 and 7, MLL3_ePHD6, pH 7.5, 25 °C
T1 construct: MLL3_ePHD6, residues 1055–1144 and residues 1075–1144; GST (N, cleaved yes); His (N, cleaved yes); made in house; host or cells: E. coli BL21 (DE3) Codon plus RIL
T1 sequence (Q8NEZ4 1055-1144): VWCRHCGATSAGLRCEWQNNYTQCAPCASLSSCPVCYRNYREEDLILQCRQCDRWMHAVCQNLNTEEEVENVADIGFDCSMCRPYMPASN
From the text: (§1) The DNA fragments of MLL3 and MLL4 PHD domains (MLL3_ePHD6, residues 1055–1144 and residues 1075–1144; MLL3_PHD6, residues 1085–1144; MLL3_PHD5, residues 1009–1055; MLL3_PHD5-6, residues 1008–1144; MLL3_ePHD3, residues 436–525; MLL4_ePHD6, residues 1475–1564, and residues 1495–1564; MLL4_PHD6 residues 1505–1564 and MLL4_PHD5 residues 1429–1475) were subcloned into a modified pET28GST-LIC vector by T4 ligase-independent method (Clontech, 638920) to generate N-terminal GST, His-tagged fusion protein. The recombinant protein was overexpressed in E coli BL21 (DE3) Codon plus RIL (Stratagene) at 15 °C by induction with 0.25 mM IPTG at an OD600 of 0.8 and purified by affinity chromatography on Ni-nitrilotriacetate resin (Qiagen, 30250) followed by thrombin protease treatment to remove the tag. The protein was further purified by HiTrap Q HP column (GE Healthcare, 17115401) by using buffers with 20 mM Tris, pH 8.0, 1 mM DTT, 50 mM NaCl (low salt buffer) or 1 M NaCl (high salt buffer), and Superdex75 gel-filtration column (GE Healthcare, 28989333) by using a buffer containing 20 mM Tris, pH 7.5, 150 mM NaCl, 50 μM ZnCl2, and 1 mM DTT. For crystallization experiments, purified protein was concentrated to 5 mg mL^−1 in the same buffer as gel-filtration by using Amicon Ultra-15 Centrifugal Filter Units (Millipore Corporation, UFC901024).
(§2) For the ITC measurement, the concentrated proteins were diluted into 20 mM Tris, pH 7.5, 150 mM NaCl; the lyophilized peptides (Peptide 2.0 Inc.) were dissolved in the same buffer, and the pH value was adjusted by adding NaOH. Peptides concentrations were estimated from the mass. […] The protein with a concentration of 50–100 μM was placed in the cell chamber, and the peptides with a concentration of 1–2 mM in syringe was injected in 25 (19 for iTC-200) successive injections with a spacing of 180 s (150 s for iTC-200) and a reference power of 13 μcal s^−1 (6 μcal s^−1 for iTC-200). Control experiments were performed under identical conditions to determine the heat signals that arise from injection of the peptides into the buffer.

MLL4_(ePHD6)1475–1564 = molecular target: T2, MLL4_(ePHD6)1475–1564 (Homo sapiens, UniProt O14686); assay: ITC binding of histone peptides to MLL4 ePHD6 (1475–1564); set-up: key to ITC titration, Kd / Kd: NB: no detectable binding; conditions: for Kd / binding to ePHD6 of MLL4 (in words): ITC; for Kd: 20 mM Tris pH 7.5, 150 mM NaCl, 25 °C, protein 50–100 μM in cell, peptide 1–2 mM in syringe, single measurement, error from fitting curve; for ITC titration, Kd: Supplementary Fig. 4 and 7, MLL4_ePHD6, pH 7.5, 25 °C
T2 construct: MLL4_ePHD6, residues 1475–1564, and residues 1495–1564; GST (N, cleaved yes); His (N, cleaved yes); made in house; host or cells: E. coli BL21 (DE3) Codon plus RIL
T2 sequence (O14686 1475-1564): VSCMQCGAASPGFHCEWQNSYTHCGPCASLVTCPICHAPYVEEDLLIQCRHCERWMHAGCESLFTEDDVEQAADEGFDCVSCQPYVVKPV
From the text: as §1, §2

[2] = tested on: fourth (PHD4), fifth (PHD5), and sixth (PHD6) PHD domains of MLL4; conditions: peptide pull-down; histone H4 fragment containing the first 23 amino acids; ref [29]; cited from earlier work
From the text: (§3) Both MLL3 and MLL4 are multi-domain proteins, containing not only the catalytic SET domain but also a few other domains, including two clusters of PHD domains (Fig. 1a). […] The interaction between histone H4_1–23 and PHD6 do ...

PHD6 domain of MLL4 = conditions: ITC; ref [29]; cited from earlier work
From the text: as §3

[3] = Gel filtration, oligomeric state in solution; assay type: physicochemical; conditions: Superdex200 10/300 GL, 20 mM Tris pH 7.5, 150 mM NaCl, 50 μM ZnCl2, 1 mM DTT
Experimental: Supplementary Fig. 3 Superimposition of gel-filtration curves of PHD6 and ePHD6 domains of MLL3 and MLL4. Gel filtration chromatography of MLL3 ePHD6 (red), PHD6 (pink), MLL4 ePHD6 (brown), PHD6 (green) and protein molecular weight standards (blue, Bio-Rad). Samples were loaded to the Superdex200 10/300 GL (GE Healthcare) column in the buffer containing 20 mM Tris, pH 7.5, 150 mM NaCl, 50 μM ZnCl2,and1mMDTT. […]

1M: W1109A single point mutation of MLL3
nucleosomal methyltransferase activity [1]: reduced the enzyme activity

2M: W1109A/E1120A double point mutation of MLL3
nucleosomal methyltransferase activity [1]: reduced the enzyme activity

H3_1–20: histone H3 peptide, residues 1–20
Kd (MLL3_(ePHD6)1055–1144): NB
Kd (MLL4_(ePHD6)1475–1564): NB

H4R3me0: histone H4 fragment containing the first 23 amino acids, unmethylated
recognition by PHD4, PHD5 and PHD6 of MLL4 [2]: able to recognize

H4R3me2a: histone H4 fragment containing the first 23 amino acids, asymmetrically dimethylated on histone H4R3
recognition by PHD4, PHD5 and PHD6 of MLL4 [2]: able to recognize

H4_1–12: histone H4 peptide covering the first 12 residues
binding to ePHD6 of MLL3 (in words) (MLL3_(ePHD6)1055–1144): neither MLL3 nor MLL4 displayed detectable binding
Kd (MLL3_(ePHD6)1055–1144): NB
binding to ePHD6 of MLL4 (in words) (MLL4_(ePHD6)1475–1564): neither MLL3 nor MLL4 displayed detectable binding
Kd (MLL4_(ePHD6)1475–1564): NB

H4_1–12R3me2a: histone H4 peptide covering the first 12 residues, asymmetrically methylated (H4R3me2a)
Kd (MLL3_(ePHD6)1055–1144): NB
Kd (MLL4_(ePHD6)1475–1564): NB

H4_1–23: histone H4 fragment containing the first 23 amino acids
interaction with PHD6 domain (PHD6 domain of MLL4): confirmed

H41–24H18A: histone H4-derived mutant peptide
ITC titration, Kd (MLL3_(ePHD6)1055–1144): NB
ITC titration, Kd (MLL4_(ePHD6)1475–1564): NB

H411–21H18A: histone H4-derived mutant peptide (GKGGAKRARKV; UniProt P62805 12-22, looked up, variant H18A)
ITC titration, Kd (MLL3_(ePHD6)1055–1144): NB
ITC titration, Kd (MLL4_(ePHD6)1475–1564): NB

H411–21K16A: histone H4-derived mutant peptide (GKGGAARHRKV; UniProt P62805 12-22, looked up, variant K16A)
binding to ePHD6 of MLL3 (in words) (MLL3_(ePHD6)1055–1144): weakened the binding significantly
ITC titration, Kd (MLL3_(ePHD6)1055–1144): Weak binding
binding to ePHD6 of MLL4 (in words) (MLL4_(ePHD6)1475–1564): weakened the binding significantly
ITC titration, Kd (MLL4_(ePHD6)1475–1564): Weak binding

H411–21R17A: histone H4-derived mutant peptide (GKGGAKAHRKV; UniProt P62805 12-22, looked up, variant R17A)
ITC titration, Kd (MLL3_(ePHD6)1055–1144): NB
ITC titration, Kd (MLL4_(ePHD6)1475–1564): NB

H411–21R19A: histone H4-derived mutant peptide (GKGGAKRHAKV; UniProt P62805 12-22, looked up, variant R19A)
binding to ePHD6 of MLL3 (in words) (MLL3_(ePHD6)1055–1144): weakened the binding significantly
ITC titration, Kd (MLL3_(ePHD6)1055–1144): Weak binding
binding to ePHD6 of MLL4 (in words) (MLL4_(ePHD6)1475–1564): weakened the binding significantly
ITC titration, Kd (MLL4_(ePHD6)1475–1564): Weak binding

MLL3 PHD6: PHD6 domain of MLL3 (SSCPVCYRNYREEDLILQCRQCDRWMHAVCQNLNTEEEVENVADIGFDCSMCRPYMPASN; left off: GST, N-terminal, cleaved | His tag, N-terminal, cleaved)
oligomeric state in solution [3]: monomer in solution

MLL4 PHD6: PHD6 domain of MLL4 (VTCPICHAPYVEEDLLIQCRHCERWMHAGCESLFTEDDVEQAADEGFDCVSCQPYVVKPV; left off: GST, N-terminal, cleaved | His tag, N-terminal, cleaved)
oligomeric state in solution [3]: dimer in solution
